Measurements taken from patent US8053627B2, “Methods for treating demyelination disorders” (University of Chicago, priority 2005, dated 2011).

B1: SOCS1: suppressor of cytokine signaling 1, Flag-tagged, expressed in oligodendrocytes from the PLP/SOCS1 transgene (protein, UniProt O35716 1-212, looked up)
Suppressor of cytokine …: MVARNQVAADNAISPAAEPRRRSEPSSSSSSSSPAAPVRPRPCPAVPAPAPGDTHFRTFRSHSDYRRITRTSALLDACGFYWGPLSVHGAHERLRAEPVGTFLVRDSRQRNCFFALSVKMASGPTSIRVHFQAGRFHLDGSRETFDCLFELLEHYVAAPRRMLGAPLRQRRVRPLQELCRQRIVAAVGRENLARIPLNPVLRDYLSSFPFQI
modifications: FLAG tag
notes: suppressor of cytokine signaling 1, Flag-tagged, expressed in oligodendrocytes from the PLP/SOCS1 transgene

Tests used:
[1] = tested on: Hippocampal organotypic cultures; experiment: Hippocampal organotypic cultures (HOC), in vitro model of myelination, MBP Western blot; format: cell-based; conditions: 7 days; for reduction of MBP expression elicited by IFN-γ exposure: SAL at various concentrations combined with 100 U/ml IFN-γ
Description: HOCs, were prepared and maintained as described previously (Kunkler and Kraig (1997) J Cereb Blood Flow Metab. 17:2643), and were maintained in vitro for 7 days before use. SAL at various concentrations was combined with 100 U/ml IFN-γ and added to the HOC cultures for 7 days. […] After 7 days of 100 U/ml IFN-γ exposure, the levels of MBP decreased approximately 80% in the HOCs (FIG. 29).

PP1-GADD34 phosphatase = PP1-GADD34 phosphatase (Homo sapiens, UniProt O75807); conditions: Boyce, et al. (2005); cited from earlier work
Sequence of PP1-GADD34 phosphatase (O75807 whole entry): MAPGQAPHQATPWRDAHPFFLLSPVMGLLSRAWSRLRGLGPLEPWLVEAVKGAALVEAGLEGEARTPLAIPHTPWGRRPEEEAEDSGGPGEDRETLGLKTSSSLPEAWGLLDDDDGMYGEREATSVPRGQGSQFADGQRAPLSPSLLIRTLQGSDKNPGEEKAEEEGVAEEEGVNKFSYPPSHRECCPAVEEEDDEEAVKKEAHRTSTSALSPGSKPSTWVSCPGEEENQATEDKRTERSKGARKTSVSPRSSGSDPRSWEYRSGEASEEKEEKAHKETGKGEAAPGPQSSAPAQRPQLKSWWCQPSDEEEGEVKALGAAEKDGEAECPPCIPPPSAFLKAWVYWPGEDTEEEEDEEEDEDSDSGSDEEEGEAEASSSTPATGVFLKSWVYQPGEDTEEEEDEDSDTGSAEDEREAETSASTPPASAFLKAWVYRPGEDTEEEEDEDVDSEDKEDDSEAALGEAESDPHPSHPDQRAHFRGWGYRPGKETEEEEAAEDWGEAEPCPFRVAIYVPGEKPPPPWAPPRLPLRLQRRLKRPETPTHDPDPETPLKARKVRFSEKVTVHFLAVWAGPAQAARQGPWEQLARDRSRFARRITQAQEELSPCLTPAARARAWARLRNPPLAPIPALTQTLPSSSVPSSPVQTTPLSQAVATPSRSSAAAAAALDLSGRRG

cells = conditions: Boyce, et al. (2005); cited from earlier work
[2] = tested on: oligodendrocytes and myelin; experiment: IFN-γ-overexpressing mice crossed to PLP/SOCS1 mice, clinical and histological evaluation at postnatal day 21; format: in vivo; conditions: for Incidence of tremor: ten mice per group; for oligodendrocyte density: corpus callosum, postnatal day 21
Description: IFN-γ-overexpressing mice were crossed to the PLP/SOCS1 mice in double-transgenic, (MBP/IFN-γ×PLP/SOCS1) and triple-transgenic (GFAP/tTA×TRE/IFN-γ×PLP/SOCS1) mating systems. MBP/IFN-γ×PLP/SOCS1 (172×PLP/SOCS1) mating was performed according to a standard mating protocol. The GFAP/tTA×TRE/IFN-γ×PLP/SOCS1 matings were performed in a 2-step mating process: GFAP/tTA mice were initially crossed to PLP/SOCS1 mice, and double-positive (184×PLP/SOCS1) offspring were then crossed to the TRE/IFN-γ lines 110 and 67, separately. This second mating step was performed according to the previously described “tet-off” protocol. Doxycycline 0.05 mg/ml (Sigma-Aldich) was added to the water of impregnated female mice until embryonic day 14, after which the animals were switched back to normal water, thereby allowing initiation of IFN-γ transcription, which peaks during the postnatal period (Lin et al., 2005).
The litters of the mating systems (F1 generation) were examined daily and sacrificed at postnatal day 21. Clinical evaluation included behavioral observation and challenged ladder walking to elicit tremor. Histological examination included quantitation of the number and density of oligodendrocytes and examination of the myelination patterns. Brain tissue was simultaneously obtained from each animal at the time of sacrifice to verify and measure the expression of IFN-γ and Flag-SOCS1 (see below). The clinical and histological findings were subsequently stratified according to genotype. All animal procedures were conducted in compliance with the National Institutes of Health Guide for Care and Use of Laboratory Animals and were approved by the Institutional Animal Care and Use Committee at The University of Chicago.
Oligodendrocyte cell density was assessed digitally using Axiovision software, at postnatal day 21, as previously described (Lin et al., 2005). The brains were sectioned sagittally through the corpus callosum dividing the brain in two symmetrical halves. Ten frozen sections from each half were prepared at 7 μm thickness, and numbered in the sequence of their preparation. The brains of three animals per study group were prepared in this fashion. Following the CC1 immunostaining the corresponding area of corpus callosum of each section was digitally selected and the corresponding total area obtained. CC1 cell counting was performed manually within the selected areas of each section, and the number of CC1 positive cells per square area (mm^2) calculated. The results were presented as mean±SD of CC1 (+) cells/mm^2 with n=3 animals per study group.
Myelination patterns of the examined animals were assessed at postnatal day 21 by calculating the percent unmyelinated axons and ratio of the axon/fiber diameters (G ratio) with Image J software (National Institutes of Health, Bethesda, Md.) as previously described (Lin at al., 2005). The brains were sectioned sagittally through the corpus callosum dividing the brain in two symmetrical halves. Approximately 2 mm^3 samples from the genu and the splenum of both halves of corpus callosum were obtained using a Wild M3C stereotype microscope. The orientation of the specimen in the resin blocks yielding axonal cross-sections (well seen myelin rings) was chosen, and established by toluedine blue staining of a few sample sections. The resin blocks with the chosen orientation were processed for electron microscope examination. Randomly selected areas were examined and ten representative pictures from both genu and splenum corpus callosum were obtained at 12000× magnification. The number of unmyelinated axons was assessed by manual counting of axons that lacked myelin and were encircled solely by their own plasma membrane. All unmyelinated axons present in the representative images were counted, and their percentage calculated by examining a total of five hundred axons per tissue sample. […]

Molecule | reduction of MBP expression elicited by IFN-γ exposure [1] | reduction of MBP expression elicited by IFN-γ exposure ([1]; listed as Sal) | MBP expression ([1]; SAL treatment alone) | PP1-GADD34 phosphatase activity (PP1-GADD34 phosphatase) | protection of cells from ER stress and viral infection (cells) | Incidence of tremor ([2]; 172 × PLP/SOCS1 littermates) | oligodendrocyte density ([2]; 184/67 system) | Incidence of tremor ([2]; 184/67 × PLP/SOCS1 littermates) | oligodendrocyte density ([2]; 184/110 system) | Incidence of tremor ([2]; 184/110 × PLP/SOCS1 littermates) | MHC class I molecule expression (immunostaining) ([2]; MBP/IFN-γ and MBP/IFN-γ×PLP/SOCS1 brains)
O=C(/C=C/c1ccccc1)NC(NC(=S)Nc1cccc2cccnc12)C(Cl)(Cl)Cl (centres unmarked) [SAL, salubrinal] | markedly attenuated | attenuating effect | did not affect | specifically inhibits | protects cells from ER stress and viral infection | – | – | – | – | – | –
B1 | – | – | – | – | – | 0% | 142±5 CC1 (+) cells/mm^2 | 0% | 141±6 CC1 (+) cells/mm^2 | 0% | did not express detectable levels
